{"source": "paper PMC9210341", "about": "(2022)", "molecular_target": "SARS-CoV-2 prototype receptor binding domain (residues 319-541) (SARS-CoV-2, UniProt P0DTC2 319-541)", "test": "SPR", "note": "Where “and” joins values, the source holds several entries; their conditions need not be identical. Equal values may be shown once.", "data": [{"binder": "equine angiotensin converting enzyme 2 (residues 19-615) (receptor) STTEDLAKTFLEKFNSEAEELSHQSSLASWSYNTNITDENVQKMNEAGARWSAFYEEQCKLAKTYPLEEIQNLTVKRQLQALQQSGSSVLSADKSKRLNEILNTMSTIYSTGKVCNPSNPQECLLLEPGLDAIMENSKDYNQRLWAWEGWRSEVGKQLRPLYEEYVVLKNEMARANNYEDYGDYWRGDYEAEGPSGYDYSRDQLIEDVERTFAEIKPLYEHLHAYVRAKLMDTYPSHINPTGCLPAHLLGDMWGRFWTNLYSLTVPFGQKPNIDVTDAMVDQSWDAKRIFEEAEKFFVSVGLPNMTQGFWENSMLTEPGDGRKVVCHPTAWDLGKGDFRIKMCTKVTMDDFLTAHHEMGHIQYDMAYAVQPYLLRNGANEGFHEAVGEIMSLSAATPNHLKAIGLLPPDFYEDSETEINFLLKQALTIVGTLPFTYMLEKWRWMVFKGEIPKEEWMKKWWEMKREIVGVVEPVPHDETYCDPAALFHVANDYSFIRYYTRTIYQFQFQEALCQTAKHEGPLHKCDISNSTEAGQKLLQMLSLGKSEPWTLALERIVGVKNMDVRPLLNYFEPLFTWLKDQNKNSFVGWSTNWSPYAD", "values": [{"measurement": "Kd", "value": "87.7 nM and 200 nM"}]}]}
